These results are taken from CN117946265A (HISUN BIO PHARMACEUTICAL CO LTD; ZHEJIANG BORUI BIOLOGICAL …, dated 2024).

In experiment [1] the target is T1, 人CX3CL1胞外区蛋白 CX3CL1(Q25-Q341)-6xHis (human, UniProt P78423 25-341).
T1 sequence: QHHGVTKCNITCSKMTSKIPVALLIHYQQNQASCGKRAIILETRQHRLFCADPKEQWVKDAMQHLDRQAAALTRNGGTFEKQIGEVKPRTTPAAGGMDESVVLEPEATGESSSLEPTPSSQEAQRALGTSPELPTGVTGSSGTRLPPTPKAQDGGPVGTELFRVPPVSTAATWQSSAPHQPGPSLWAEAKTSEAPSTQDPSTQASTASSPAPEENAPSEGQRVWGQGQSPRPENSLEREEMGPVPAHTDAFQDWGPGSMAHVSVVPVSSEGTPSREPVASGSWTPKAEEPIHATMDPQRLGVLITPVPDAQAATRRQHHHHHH
Briefly: cell-based or functional assay.

Experiment [2] addresses T1, 人CX3CL1胞外区蛋白 CX3CL1(Q25-Q341)-6xHis. Briefly: cell-based or functional assay. The source holds these as a separate data set.
The target is the same in experiment [3]. Briefly: FACS competition: antibody blocks huCX3CL1-His binding to CHOK1-hCX3CR1 cells.

Values joined by “and” are separate entries in the source; they are usually repeats but may differ in a detail not shown here. Equal entries are not always repeated.

B1: mAb017 (antibody, V domains shown)
VH: QIQLVQSGPELKKPGETVKISCKASVYTFTEYAMHWVKQAPGKGFKWMGWINTNSGEPTYADDFKGRFAFSLETSASTAYLQINNLKNEDTATYFCGRGRVVGSFDYWGQGTTLTVSS
VL: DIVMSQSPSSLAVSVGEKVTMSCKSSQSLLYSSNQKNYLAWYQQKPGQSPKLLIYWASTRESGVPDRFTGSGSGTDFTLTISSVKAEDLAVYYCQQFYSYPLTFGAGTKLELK
notes: Murine monoclonal antibody purified from hybridoma supernatant; also called 36C7-1G2
Consider B1, for which, in experiment [1], the “抑制cAMP活性 IC50” value was 0.7 nM and the “抑制cAMP活性 MAX” value came to 100. Moreover, the “抑制细胞迁移活性 IC50” value in experiment [2] came to 7.55 nM. For the same molecule, the IC50 in experiment [3] worked out at 6.1 nM.

B2: C032 (antibody, human IgG2, kappa, V domains shown)
VH: EVQLQQSGPELVKPGASVKISCKASGYTFTDYYMNWVKQSHGKSLEWIGDINPNNGGTSYNQKFKGKATLTVDKSSSTAYMELRSLTSEDSAVYYCASSGNSYVDYWGQGTTLTVSS
VL: DIVMTQSHKFMSTSVGDRVSITCKASQDVSTAVAWYQQKPGQSPKLLIYWASTRHTGVPDRFTGSGSGTDYTLTISSVQAEDLALYYCQQHYSSPYTFGGGTKLEIKR
notes: Human-mouse chimeric antibody of mAb032 with human IgG2 constant region, expressed in CHOK1; also called 嵌合抗体C032
On to B2, for which, in experiment [1], the “抑制cAMP活性 IC50” value came to 3.4 nM and the “抑制cAMP活性 MAX” value was found to be 95.8. Also, in experiment [2], the “抑制细胞迁移活性 IC50” value turned out to be 2.49 nM. The molecule also showed a half-maximal inhibitory concentration (IC50) in experiment [3] of 0.731 nM.

B3: mAb022 (antibody, V domains shown)
VH: EVQLQQSGPELVKPGASVKISCKASGYTFTDYYMNWVKQSHGKSLEWIGDINPNNGGTNYNQKFKGKATLTVDKSSSTAYMELRSLTSEDSAVFYCASSGNSYVDYWGQGTTLTVSS
VL: DIVMTQSHKFMSTSVGDRVNITCKASQDVSTAVAWYQQKPGQSPKLLIYWASTRHTGVPDRFTGSGSGTDYTLTISSVQAEDLALYYCQQHYSSPYTFGGGTKLEIK
notes: Murine monoclonal antibody purified from hybridoma supernatant; also called 15F7B2
As for B3, in experiment [1], the “抑制cAMP活性 IC50” value is 0.8 nM and the “抑制cAMP活性 MAX” value stood at 105. Further, the “抑制细胞迁移活性 IC50” value in experiment [2] was determined as 7.19 nM. Moreover, the IC50 in experiment [3] came out at 7.6 nM.

B4: C032NA (antibody, human IgG2, kappa, V domains shown)
VH: EVQLQQSGPELVKPGASVKISCKASGYTFTDYYMNWVKQSHGKSLEWIGDINPNNAGTSYNQKFKGKATLTVDKSSSTAYMELRSLTSEDSAVYYCASSGNSYVDYWGQGTTLTVSS
VL: DIVMTQSHKFMSTSVGDRVSITCKASQDVSTAVAWYQQKPGQSPKLLIYWASTRHTGVPDRFTGSGSGTDYTLTISSVQAEDLALYYCQQHYSSPYTFGGGTKLEIKR
notes: Chimeric IgG2 mutant of C032 removing the NG hot spot of HCDR2 (NG to NA)
As for B4, in experiment [1], the “抑制cAMP活性 IC50” value was determined as 3.63 nM and the “抑制cAMP活性 MAX” value was found to be 92.5. For the same molecule, in experiment [2], the “抑制细胞迁移活性 IC50” value is 4 nM. For the same molecule, the concentration for half-maximal inhibition (IC50) in experiment [3] is 0.865 nM.

B5: C032QG (antibody, human IgG2, kappa, V domains shown)
VH: EVQLQQSGPELVKPGASVKISCKASGYTFTDYYMNWVKQSHGKSLEWIGDINPNQGGTSYNQKFKGKATLTVDKSSSTAYMELRSLTSEDSAVYYCASSGNSYVDYWGQGTTLTVSS
VL: DIVMTQSHKFMSTSVGDRVSITCKASQDVSTAVAWYQQKPGQSPKLLIYWASTRHTGVPDRFTGSGSGTDYTLTISSVQAEDLALYYCQQHYSSPYTFGGGTKLEIKR
notes: Chimeric IgG2 mutant of C032 removing the NG hot spot of HCDR2 (NG to QG)
For the molecule B5, in experiment [1], the “抑制cAMP活性 IC50” value was found to be 3.96 nM and the “抑制cAMP活性 MAX” value turned out to be 97. The “抑制细胞迁移活性 IC50” value in experiment [2] was 2.27 nM. The IC50 in experiment [3] is 0.811 nM and 1.49 nM.

B6: C022 (antibody, human IgG2, kappa, V domains shown)
VH: EVQLQQSGPELVKPGASVKISCKASGYTFTDYYMNWVKQSHGKSLEWIGDINPNNGGTNYNQKFKGKATLTVDKSSSTAYMELRSLTSEDSAVFYCASSGNSYVDYWGQGTTLTVSS
VL: DIVMTQSHKFMSTSVGDRVNITCKASQDVSTAVAWYQQKPGQSPKLLIYWASTRHTGVPDRFTGSGSGTDYTLTISSVQAEDLALYYCQQHYSSPYTFGGGTKLEIKR
notes: Human-mouse chimeric antibody of mAb022 with human IgG2 constant region, expressed in CHOK1; also called 嵌合抗体C022
Consider B6, for which the “抑制cAMP活性 IC50” value in experiment [1] was 2.41 nM and 3.28 nM. In experiment [3], the IC50 is 0.885 nM and 1.7 nM.

B7: mAb032 (antibody, V domains shown)
VH: EVQLQQSGPELVKPGASVKISCKASGYTFTDYYMNWVKQSHGKSLEWIGDINPNNGGTSYNQKFKGKATLTVDKSSSTAYMELRSLTSEDSAVYYCASSGNSYVDYWGQGTTLTVSS
VL: DIVMTQSHKFMSTSVGDRVSITCKASQDVSTAVAWYQQKPGQSPKLLIYWASTRHTGVPDRFTGSGSGTDYTLTISSVQAEDLALYYCQQHYSSPYTFGGGTKLEIK
notes: Murine monoclonal antibody purified from hybridoma supernatant; also called 18H6F1
For the molecule B7, in experiment [1], the “抑制cAMP活性 IC50” value came out at 1.07 nM and the “抑制cAMP活性 MAX” value amounted to 115. Moreover, in experiment [2], the “抑制细胞迁移活性 IC50” value came out at 8.72 nM. The molecule further had an IC50 in experiment [3] of 11.5 nM.

B8: HumAb032-4 (antibody, human IgG2, kappa, V domains shown)
VH: EVQLVQSGAEVKKPGATVKISCKASGYTFTDYYMNWVQQAPGKSLEWMGDINPNQGGTSYNQKFKGRVTLTVDKSTSTAYMELSSLRSEDTAVYYCASSGNSYVDYWGQGTTVTVSS
VL: DIQMTQSPSSLSASVGDRVTITCKASQDVSTAVAWYQQKPGKAPKLLLYWASTRHTGVPSRFSGSGSGTDYTLTISSLQPEDFATYYCQQHYSSPYTFGGGTKVEIKR
notes: Full-length humanized IgG2/kappa antibody
For B8, in experiment [3], the IC50 turned out to be 1.22 nM.

B9: HumAb022-4 (antibody, human IgG2, kappa, V domains shown)
VH: EVQLVQSGAEVKKPGATVKISCKASGYTFTDYYMNWVQQAPGKSLEWMGDINPNQGGTNYNQKFKGRVTLTVDKSTSTAYMELSSLRSEDTAVYYCASSGNSYVDYWGQGTTVTVSS
VL: DIQMTQSPSSLSASVGDRVTITCKASQDVSTAVAWYQQKPGKAPKLLLYWASTRHTGVPSRFSGSGSGTDYTLTISSLQPEDFATYYCQQHYSSPYTFGGGTKVEIKR
notes: as for B8
As for B9, in experiment [1], the “抑制cAMP活性 IC50” value turned out to be 2.69 nM and the “抑制cAMP活性 MAX” value is 100. The “抑制细胞迁移活性 IC50” value in experiment [2] came out at 0.299 nM. In experiment [3], this molecule came in with an IC50 of 1.27 nM.

B10: Tab#1 (antibody, human IgG2, kappa, V domains shown)
VH: QVQLVQSGAEVKKPGASVKVSCKASGYTFTNYYIHWVKQAPGQGLEWIGWIYPGDGSPKFNERFKGRTTLTADKSTNTAYMLLSSLRSEDTAVYFCATGPTDGDYFDYWGQGTTVTVSS
VL: DIQMTQSPSSLSASVGDRVTITCRASGNIHNFLAWYQQKPGKAPKLLIYNEKTLADGVPSRFSGSGSGTDYTLTISSLQPEDFATYFCQQFWSTPYTFGGGTKVEIKR
notes: also called Quetmolimab; CX3CL1阳性对照抗体
With B10, the “抑制cAMP活性 IC50” value in experiment [1] was 5.69 nM and 4.07 nM. Besides, in experiment [2], the “抑制细胞迁移活性 IC50” value is 19 nM. In experiment [3], this molecule came in with an IC50 of 1.96 nM.
